Test results from the supplement of paper PMC10567573.

B1: FCHO1 (parent)
chain: FTSSPSPFSSSSPENVEDSGLDSP
B2: FAM107A (parent)
chain: HRRGLGVDSKPELQRVLEHRRRNQ

Variants of: B1
Test: protein stability index of a GFP-peptide fusion (GPS, HEK-293T) (PSI 1-6); higher = more stable
Conditions: c terminus: a fixed tail appended
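Also: lentivirally expressed fusions sorted by FACS into six bins by GFP to DsRed ratio, PSI derived from sequencing read proportions per bin multiplied by bin number.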

Protein stability index: each site, then its substitutions
F8: P 4.95, N 4.9, I 4.48, H 5.05, V 4.45, S 5.08, M 4.53, Q 4.95, A 5.11, T 5.39, C 3.77, D 5.5, E 5.2, Y 2.04, G 4.72, L 3.74, K 5.34, R 4.29
S9: Y 2.45, C 2.22, G 2.2, P 3.79, V 1.73, L 2.17, T 2.29, F 2.34, Q 2.06, H 1.84, A 2.09, R 1.76, W 2.71, N 2.08, K 1.89, M 2.02, I 2.91, D 2.67, E 2.83
S11: I 2.23, W 2.39, Q 2.06, H 1.83, A 2.05, R 2.01, L 1.63, G 1.33, N 1.55, V 1.77, D 2.75, E 2.18, M 1.76, F 1.62, K 1.86, P 1.86, C 2.65, Y 2.25, T 1.67
P5: K 2.31, A 1.88, I 1.81, G 2.06, L 1.91, E 2.04, D 2.43, F 2.32, Y 1.9, C 1.96, R 2.08, H 2.23, T 1.69, W 1.87, V 2.17, N 2.09, S 2.67, M 2.02, Q 2.16
S10: T 2.15, V 2.06, L 1.71, W 2.7, Y 2.07, D 1.93, K 1.88, Q 1.92, E 2.05, H 2, C 2.14, A 2.53, P 2.3, N 2.3, I 2.7, M 1.94, G 2.02, R 2.56, F 2.09
T2: D 4.91, K 5.53, A 2.26, C 2.02, Q 1.58, F 4.58, N 3.96, R 5.01, H 2.02, V 2.93, M 3.48, W 3.64, G 2.71, I 2.14, Y 4.84, E 5.36, L 3.48, S 2.86, P 2.65
S3: A 2.26, P 2.52, G 1.38, I 3.05, F 2.6, V 2.05, M 2.38, E 2.79, K 3.48, C 2.01, D 2.7, H 2.32, T 1.87, Q 2.42, L 3.8, N 2.71, Y 2.85, W 2.61, R 3.59
S4: K 2.13, L 2.31, E 3.14, M 1.73, H 1.91, Y 1.95, G 2, W 3.58, P 3.53, C 2.35, T 1.93, V 1.8, D 2.03, R 1.42, I 2.19, N 2.06, A 1.71, F 2.9, Q 2.14
P7: I 1.74, N 1.96, Q 1.86, G 2.89, D 3.19, T 2.38, E 2.79, Y 2.49, H 2.12, R 2.09, M 2.1, K 2.28, F 1.93, L 1.91, S 2.25, C 1.56, A 2.25, V 2.24
S12: A 1.74
F1: P 5.41, A 5.3, H 4.74, V 5.51, Y 1.88, R 5.69, W 5.16, M 5.34, K 5.56, T 5.38, Q 5.16, D 5.61, S 5.49, G 5.46, C 5.43, I 5.67, L 5.78, N 5.29, E 5.62
S6: L 1.86, K 2.67, A 2.37, H 2.23, T 2.19, D 3.29, G 2.02, W 2.44, V 1.99, M 1.83, E 2.85, Y 2.19, R 2.21, I 2.22, N 1.98, F 1.79, Q 2.08, C 2.18

Variants of: B2
Test: as above
Conditions: c terminus: a fixed tail appended

Protein stability index, by site and new letter:
V16: T 3.71, P 4.89, Y 4.46, Q 5.45, S 4.01, K 4.47, L 4.03, R 4.67, I 3.63, N 4.76
R22: K 4.46, P 4.36, L 3.4, N 3.48, A 4.63, T 3.76, C 3.6, W 2.46, F 3.43, Y 3.82, Q 3.57, S 4.79, G 3.64, D 4.62, H 3.55
E18: N 4.02, S 2.71, A 3.57, L 3.98, G 3.58, F 3.93, Y 4.17, P 5.02, R 4.12, Q 2.67, D 3.29, M 2.48, T 3.58
R20: I 3.78, M 4.04, A 3.36, S 4.27, F 2.69, T 4.42, D 3.98, G 3.95, Y 3.41, Q 3.96, E 4.33, N 4.04, C 4.53, L 3.31, P 4.59, W 3.47, K 4.79
R21: M 4.09, S 3.37, E 5.04, L 3.77, W 3.64, Q 4.38, Y 3.98, T 3.48, K 4.15, C 3.39, N 4.74, D 4.11, I 3.86, H 4.38
Q24: T 3.78, S 3.57, L 2.49, M 2.88, H 3.64, W 2.73, N 4.19, V 3.24, Y 2.79, I 2.4, D 3.81, E 4.59, K 4.39, A 3.88, C 3.59, P 2.74
N23: D 3.85, L 2.35, Q 3.14, E 3.52, C 2.37, A 2.99, P 3.03, F 4.65, V 3.33, I 2.32, H 2.74, R 3.26
H19: S 4.82, C 2.01, R 4.54, M 4.13, I 4.04, G 4.68, N 4.93, L 4.45, W 1.53, Y 3.72, K 4.29, P 4.29, Q 3.67, D 5.29
L17: D 5.01, M 4.14, W 3.71, N 5.25, C 5.08, E 4.21, K 4.53, Y 4.56, V 4.17, P 4.7, G 5.21, Q 4.99, S 4.79, H 4.34, I 4.76, A 4.92
